Patent publication US20170088624A1 (Janssen / Centocor, published 2017)

T1: cyno CD40 (SPR analyte) (Macaca fascicularis (cynomolgus), UniProt P25942 21-193 (human entry), limits assumed)
T1 construct: also called cCD40-ECD
T1 chain: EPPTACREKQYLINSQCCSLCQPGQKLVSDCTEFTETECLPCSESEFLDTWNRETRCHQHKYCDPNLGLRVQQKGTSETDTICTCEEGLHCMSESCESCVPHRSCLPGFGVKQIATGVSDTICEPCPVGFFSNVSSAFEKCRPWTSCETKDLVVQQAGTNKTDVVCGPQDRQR

T2: Macaca fascicularis (cyno) CD40 (cCD40) on cells (Macaca fascicularis (cynomolgus), UniProt P25942 21-277 (human entry))
T2 construct: CD40 on cyno mature DCs
T2 chain: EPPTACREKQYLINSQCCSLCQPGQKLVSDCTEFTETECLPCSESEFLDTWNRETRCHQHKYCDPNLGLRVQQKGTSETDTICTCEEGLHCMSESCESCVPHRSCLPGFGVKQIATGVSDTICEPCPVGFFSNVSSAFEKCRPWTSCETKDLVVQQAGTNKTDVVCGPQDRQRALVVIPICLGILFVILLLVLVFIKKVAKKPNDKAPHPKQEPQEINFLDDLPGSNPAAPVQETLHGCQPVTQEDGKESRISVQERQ

B1: C40M67 (antibody, human IgG1, kappa, V domains shown)
VH: EVQLLESGGGLVQPGGSLRLSCAASGFTFSDYAMNWVRQAPGKGLEWVSGIKSGGSSKYYADSVKGRFTISRDNSKNTLYLQMNSLRAEDTAVYYCAKHVDFYRALDYWGQGTLVTVSS
VL: EIVLTQSPGTLSLSPGERATLSCRASQSVKNSSLAWYQQKPGQAPRLLIYTASSRATGIPDRFSGSGSGTDFTLTISRLEPEDFAVYYCQQSSAPPWTFGQGTKVEIKR
notes: Full-length IgG1/kappa; from phage display
B2: C40M12 (antibody, human IgG1, lambda, V domains shown)
VH: EVQLVESGGGLVQPGGSLRLSCAASGFTFGSYAMSWVRQAPGKGLEWVSVISDSGGRTYYADSVKGRFTISRDYSKNTLYLQMNSLRAEDTAVYYCAKEGGDYYYYGMDVWGQGTTVTVSS
VL: SYELTQPPSVSVSPGQTASIICSGDKLGDKYVCWYQQKPGQSPVVVIYHDNKRPSGIPERFSGSNSGNTATLTISGTQAMDEADYYCQVWDSSTVVFGGGTKLTVLG
notes: Full-length IgG1/lambda; from OmniRat (OMT)
B3: C40M17 (antibody, human IgG1, lambda, V domains shown)
VH: EVQLVESGGGLVQPGGSLRLSCAASGFTFSSYAMSWVRQAPGRGLEWVSTINNSGGGTYYADSVKGRFTISRDNSKNTLYLHMNSLRAEDTAVYYCAKEGGKYYYYAMDVWGQGTTVTVSS
VL: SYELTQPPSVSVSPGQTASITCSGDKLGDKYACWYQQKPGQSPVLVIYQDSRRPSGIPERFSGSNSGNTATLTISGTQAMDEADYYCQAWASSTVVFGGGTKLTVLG
notes: as for B2
B4: C40M59 (antibody, human IgG1, kappa, V domains shown)
VH: QVQLVQSGAEVKKPGSSVKVSCKASGGTFSSYWISWVRQAPGQGLEWMGYIIPISGTARYAQKFQGRVTITADESTSTAYMELSSLRSEDTAVYYCAREPGYSSGLSVDYFDYWGQGTLVTVSS
VL: not shown
notes: as for B1
B5: C40M63 (antibody, human IgG1, kappa, V domains shown)
VH: QVQLVQSGAEVKKPGSSVKVSCKASGGTFSSYAISWVRQAPGQGLEWMGGIIPIFGTANYAQKFQGRVTITADESTSTAYMELSSLRSEDTAVYYCARVGHPAWWRDSLDYWGQGTLVTVSS
VL: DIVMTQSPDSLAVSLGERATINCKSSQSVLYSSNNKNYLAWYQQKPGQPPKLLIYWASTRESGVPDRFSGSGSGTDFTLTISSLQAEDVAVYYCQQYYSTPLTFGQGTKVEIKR
notes: as for B1
B6: C40M66 (antibody, human IgG1, kappa, V domains shown)
VH: QVQLVQSGAEVKKPGSSVKVSCKASGGTFSSYAISWVRQAPGQGLEWMGGIIPIFGTANYAQKFQGRVTITADESTSTAYMELSSLRSEDTAVYYCARVRYSAWYRDSLDYWGQGTLVTVSS
VL: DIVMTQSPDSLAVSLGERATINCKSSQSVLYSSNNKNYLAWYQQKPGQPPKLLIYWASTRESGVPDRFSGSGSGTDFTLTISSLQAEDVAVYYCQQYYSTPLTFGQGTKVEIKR
notes: as for B1

Tests used:
human CD40 (SPR analyte) = target: T3, human CD40 (SPR analyte) (human, UniProt P25942 21-193); experiment: SPR ProteOn XPR36, mAb captured by anti-human IgG Fc, CD40 as analyte, 25 C
T3 construct: also called huCD40-ECD
Protocol: (§1) Affinity measurements were performed using Surface Plasmon Resonance (SPR) using a ProteOn XPR36 system (BioRad). […] Approximately 5000 RU (response units) of mAbs were immobilized. The kinetic experiments were performed at 25° C. in running buffer (DPBS+0.01% P20+100 μg/ml BSA). To perform kinetic experiments, 200 RU of mAbs were captured followed by injections of analytes (human or cyno CD40) at 5 concentrations (in a 4-fold serial dilution). The association phase was monitored for 3 minutes at 50 μL/min, then followed by 15 minutes of buffer flow (dissociation phase). The chip surface was regenerated with two 18 second pulses of 100 mM H₃PO₄ (Sigma, Cat#7961) at 100 μL/min.
(§2) The collected data were processed using ProteOn Manager software. First, the data was corrected for background using inter-spots. Then, double reference subtraction of the data was performed by using the buffer injection for analyte injections. The kinetic analysis of the data was performed using a Langmuir 1:1 binding model. The result for each mAb was reported in the format of Ka (On-rate), Kd (Off-rate) and KD (equilibrium dissociation constant).
(§3) The parameters reported in this table were obtained from a 1:1 Langmuir binding model for all samples. Affinity, KD=kd/ka.

[1] = target: T4, Full length human CD40 (huCD40) on cells (human, UniProt P25942 21-277); experiment: cell-based or functional assay
cyno CD40 (SPR analyte) [2] = target: T1, cyno CD40 (SPR analyte); experiment: SPR ProteOn XPR36, mAb captured by anti-human IgG Fc, cyno CD40 as analyte, 25 C
Protocol: as §1, §2

[3] = target: T2, Macaca fascicularis (cyno) CD40 (cCD40) …; experiment: flow cytometry, cyno mature DCs
Protocol: (§4) Human monocytes were isolated from either frozen/fresh PBMC using CD14 negative isolation kit per manufacturer's protocol (MACS Miltenyi). Cyno monocytes were isolated from fresh PBMC using CD14 positive isolation kit per manufacturer's protocol (MACS Miltenyi). To generate DCs, monocytes were cultured for 5 days in complete media RPMI (Invitrogen) in the presence of 100 ng/ml human GM-CSF and human IL-4 (Peprotech) and media was replenished every 2 days. On day 5, DCs were stimulated with 100 ng/ml LPS (Sigma) for 24 hours. Cells were then stained with each of the tested CD40 antibody at different concentration in flow cytometry buffer (PBS+1% FBS; BD Bioscience) in 100 μl volume for 30 minutes on ice followed with two washes with flow buffer. Cells were then stained for additional 30 minutes on ice with APC-conjugated anti human IgG (Jackson ImmunoResearch) at the recommended dilution 1:100 and washed twice with flow buffer. Cells were analyzed for percent positive and Mean Fluorescence Intensity (MFI) to determine the antibody binding using Fortessa (BD Bioscience).
(§5) The experiments were conducted using assays described above. 20 antibodies were characterized further based on their binding to human DCs, cyno DCs, Raji cells and HEK-Blue™ CD40L cells.

[4] = target: T4, Full length human CD40 (huCD40) on cells; experiment: flow cytometry, Raji cells
[5] = target: T4, Full length human CD40 (huCD40) on cells; experiment: flow cytometry, HEK-Blue CD40L cells
[6] = target: T4, Full length human CD40 (huCD40) on cells; experiment: cell-based or functional assay; remark: listed apart in the source
[7] = target: T4, Full length human CD40 (huCD40) on cells; experiment: flow cytometry, human mature DCs
Protocol: as §4, §5

cyno CD40 (SPR analyte) [8] = target: T1, cyno CD40 (SPR analyte); experiment: SPR ProteOn XPR36, mAb captured, cyno CD40 as analyte, 25 C; did not fit well to 1:1 model
Protocol: as §1, §2, §3

| Binder | Kd (human CD40 (SPR analyte)) [nM] | koff (human CD40 (SPR analyte)) [s⁻¹] | kon (human CD40 (SPR analyte)) [M⁻¹ s⁻¹] | DC EC50, CD80 surface expression, with cross-linker [1] [ng/mL] | DC EC50, CD83 surface expression, with cross-linker [1] [ng/mL] | DC EC50, CD86 surface expression, with cross-linker [1] [ng/mL] | DC EC50, HLA-DR surface expression, with cross-linker [1] [ng/mL] | Kd (cyno CD40 (SPR analyte) [2]) [nM] | koff (cyno CD40 (SPR analyte) [2]) [s⁻¹] | kon (cyno CD40 (SPR analyte) [2]) [M⁻¹ s⁻¹] | EC50 [3] [ng/mL] | EC50 [4] [ng/mL] | EC50 [5] [ng/mL] | B cells EC50, CD23 surface expression, with cross-linker [6] [ng/mL] | B cells EC50, CD80 surface expression, with cross-linker [6] [ng/mL] | B cells EC50, CD83 surface expression, with cross-linker [6] [ng/mL] | B cells EC50, CD86 surface expression, with cross-linker [6] [ng/mL] | B cells EC50, HLA-DR surface expression, with cross-linker [6] [ng/mL] | EC50 [7] [ng/mL] | other results |
| --- | --- | --- | --- | --- | --- | --- | --- | --- | --- | --- | --- | --- | --- | --- | --- | --- | --- | --- | --- | --- |
| B1 | 1.91 | 0.00031 | 163000 | 49.9 | 127 | 202 | 50.7 | 1.85 | 0.000341 | 184000 | 327 | 247 | 550 | 4.17 | 3.32 | 1.46 | 2.26 | 0.792 | 766 | – |
| B2 | 0.136 | 0.000176 | 1.3e+06 | 0.00393 | 332 | 502 | 301 | 0.243 | 0.000441 | 1.81e+06 | 47.4 | 29.9 | 112 | 125000 | 6.23 | 2.84 | 2.28 | 4.27 | 298 | – |
| B3 | 0.0294 | 8.06e-05 | 2.74e+06 | 36 | 306 | 33 | – | 0.0368 | 0.000157 | 4.27e+06 | 53.7 | 73.9 | 75.1 | 1.95 | 0.879 | 0.838 | 4.57 | 1.57 | 127 | – |
| B4 | 9 | 0.00106 | 118000 | 0.342 | 276 | 9.79 | 53.6 | 6.92 | 0.000995 | 144000 | 74 | 125 | 354 | 1240 | 10.6 | 10.8 | 15.4 | 4.84 | 826 | – |
| B5 | 1.21 | 0.000641 | 528000 | 70.5 | 0.962 | 258 | 154 | – | – | – | 30.9 | 39.6 | 84.9 | 6.94 | 0.0167 | 0.581 | 1.26 | 0.00966 | 99.6 | Kd (cyno CD40 (SPR analyte) [8]): 0.412 nM; koff (cyno CD40 (SPR analyte) [8]): 0.000307 s⁻¹; kon (cyno CD40 (SPR analyte) [8]): 746000 M⁻¹ s⁻¹ |
| B6 | 3.05 | 0.00116 | 378000 | 158 | 175 | 423 | 39.4 | 1.64 | 0.000577 | 352000 | 48.3 | 73 | 169 | 41.4 | 5.11 | 1.82 | 2.46 | 1.08 | 202 | – |
